In patent publication US20230052369A1 (Zymeworks, published 2023):

What was measured:
[1] = molecular target: T1, full-length human FRα, on 293E cells (human, UniProt P15328 25-234); test: flow cytometry, 293E cells expressing FRα
T1 construct: also called folate receptor alpha; FOLR1
Description: Antibodies were diluted in 50 μl FB (PBS 2% FCS) 1:3 from stock in wells of a 96 V-well plate, and cells added on top. The cells were then left on ice for 30 minutes for the antibodies to bind. The cells were then washed twice in FB, and incubated in 50 μl FB containing 2 μg/ml goat anti-human Alexa647 antibody (Jackson Immunoresearch). The cells were then left on ice for a further 20 minutes, washed twice in FB, resuspended in 100 μl FB and analyzed on a BD Fortessa™ X20. The subsequent data files were analyzed using FlowJo™ and Prism 7 (GraphPad).

[2] = molecular target: T2, purified human monomeric 4-1BB (human, UniProt Q07011 24-186); test: SPR, Ab captured, monomeric 4-1BB injected
T2 construct: the assay used the 4-1BB part released by Factor Xa with the Fc removed; also called h4-1BB; human 4-1BB
T2 sequence (Q07011 other isoform, or with tags, fused parts or gaps limits assumed): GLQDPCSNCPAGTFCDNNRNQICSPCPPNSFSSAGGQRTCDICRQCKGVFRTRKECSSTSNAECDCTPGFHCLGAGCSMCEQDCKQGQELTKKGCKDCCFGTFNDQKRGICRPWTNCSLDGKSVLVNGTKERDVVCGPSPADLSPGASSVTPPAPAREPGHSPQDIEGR
Description: (§1) The anti-human Fc surface was prepared on a CMS Series S sensorchip by standard amine coupling methods as described by the manufacturer (GE Healthcare). Briefly, immediately after EDC/NHS activation, a 25 μg/mL solution of anti-human Fc in 10 mM NaOAc pH 4.5 was injected at a flow rate of 10 μL/min for 420 s until approximately 2000 resonance units (RUs) were immobilized on all four flow cells. The remaining active groups were quenched by a 420 s injection of 1M ethanolamine at 10 μL/min.
(§2) Antibodies for analysis were captured onto the anti-Fc surface by injecting 5 μg/mL solutions at a flow rate of 10 μL/min for 60 s. Using single-cycle kinetics, five concentrations of a two-fold dilution series of 4-1BB starting at 40 nM (for both supernatant and purified antibody runs) with a blank buffer control were sequentially injected at 40 μL/min for 180 s with a 600 s dissociation phase, resulting in a set of sensorgrams with a buffer blank reference. Experiments were performed at a constant temperature of 25° C. The anti-human Fc surfaces were regenerated to prepare for the next injection cycle by one pulse of 10 mM Glycine/HCl pH 1.5 for 120 s at 40 μL/min. Blank-subtracted sensorgrams were analyzed using Biacore™ T200 Evaluation Software v3.0. The blank-subtracted sensorgrams were then fit to the 1:1 Langmuir binding model.
Variants purified by SEC were assessed for binding to human 4-1BB.

[3] = molecular target: T2, purified human monomeric 4-1BB; test: SPR, Ab captured, monomeric 4-1BB injected; remark: listed apart in the source
Description: as §1, §2
Protein material post protein-A or SEC was assessed for binding to human 4-1BB.

T1 sequence (P15328 25-234 limits assumed): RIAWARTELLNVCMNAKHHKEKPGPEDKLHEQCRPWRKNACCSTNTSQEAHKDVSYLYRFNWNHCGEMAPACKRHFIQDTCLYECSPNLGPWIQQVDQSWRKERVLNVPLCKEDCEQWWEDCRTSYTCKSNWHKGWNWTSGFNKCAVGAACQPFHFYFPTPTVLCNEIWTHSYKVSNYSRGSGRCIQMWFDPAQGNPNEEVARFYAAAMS

| binding result [1] | Kd [2] [nM] | binding result [3] | Binder |
| --- | --- | --- | --- |
| binds | 464 | – | v23665 (bispecific antibody, human IgG1, kappa, L234A L235A, also called 6B3 x 1H06 (VLVH) 2x1) heavy 1: QVQLKESGPGLVAPSQSLSITCTVSGFSLTSYAISWVRQPPGKGLEWLGVIWPGGGTNYNSALKSRLSISKDNSKSQVFLKMNSLQTDDTARYYCARGTGTWYFDVWGAGTTVTVSSASTKGPSVFPLAPSSKSTSGGTAALGCLVKDYFPEPVTVSWNSGALTSGVHTFPAVLQSSGLYSLSSVVTVPSSSLGTQTYICNVNHKPSNTKVDKKVEPKSCDKTHTCPPCPAPEAAGGPSVFLFPPKPKDTLMISRTPEVTCVVVSVSHEDPEVKFNWYVDGVEVHNAKTKPREEQYNSTYRVVSVLTVLHQDWLNGKEYKCKVSNKALPAPIEKTISKAKGQPREPQVYVYPPSRDELTKNQVSLTCLVKGFYPSDIAVEWESNGQPENNYKTTPPVLDSDGSFALVSKLTVDKSRWQQGNVFSCSVMHEALHNHYTQKSLSLSPGGGGGDIVMTQTPSSVSAAVGGTVTIKCQASQTIGSSLAWYQQKPGQPPKLLIYRASTLASGVSSRFRGSGSGTEYTLTISDLECADAATYYCQWTDYGYIYIWAFGGGTEVVVKGGGGSGGGGSGGGGSQEQLVESGGGLVQPEGSLTLTCTASKFSFSSLYYMCWVRQAPGKGLEWIACVYGGSSGNTYYASWAKGRFTISKASSTTVTLQLTSLTAADTATYFCARFDVDGSGFNLWGPGTLVTVSS heavy 2: QVQLKESGPGLVAPSQSLSITCTVSGFSLTSYAISWVRQPPGKGLEWLGVIWPGGGTNYNSALKSRLSISKDNSKSQVFLKMNSLQTDDTARYYCARGTGTWYFDVWGAGTTVTVSSASTKGPSVFPLAPSSKSTSGGTAALGCLVKDYFPEPVTVSWNSGALTSGVHTFPAVLQSSGLYSLSSVVTVPSSSLGTQTYICNVNHKPSNTKVDKKVEPKSCDKTHTCPPCPAPEAAGGPSVFLFPPKPKDTLMISRTPEVTCVVVSVSHEDPEVKFNWYVDGVEVHNAKTKPREEQYNSTYRVVSVLTVLHQDWLNGKEYKCKVSNKALPAPIEKTISKAKGQPREPQVYVLPPSRDELTKNQVSLLCLVKGFYPSDIAVEWESNGQPENNYLTWPPVLDSDGSFFLYSKLTVDKSRWQQGNVFSCSVMHEALHNHYTQKSLSLSPG light: DIQMTQTTSSLSASLGDRVTISCSASQGISNYLNWYQQKPDGTVKLLIYYTSSLHSGVPSRFSGSGSGTDYSLTISNLEPEDIATYYCQQYSDLPWTFGGGTKLEIKRTVAAPSVFIFPPSDEQLKSGTASVVCLLNNFYPREAKVQWKVDNALQSGNSQESVTEQDSKDSTYSLSSTLTLSKADYEKHKVYACEVTHQGLSSPVTKSFNRGEC |
| binds | 535 | – | v23661 (bispecific antibody, human IgG1, kappa, L234A L235A, also called 1C8 x 1H06 (VLVH) 2x1) heavy 1: QVQLKESGPGLVAPSQSLSITCTVSGFSLTTYAISWVRQPPGKGLEWLGIIWPGGGTNYNSALKSRLSISKDNSRSQVFLKMNSLQTDDTARYYCARGAGTWYFDVWGAGTTVTVSSASTKGPSVFPLAPSSKSTSGGTAALGCLVKDYFPEPVTVSWNSGALTSGVHTFPAVLQSSGLYSLSSVVTVPSSSLGTQTYICNVNHKPSNTKVDKKVEPKSCDKTHTCPPCPAPEAAGGPSVFLFPPKPKDTLMISRTPEVTCVVVSVSHEDPEVKFNWYVDGVEVHNAKTKPREEQYNSTYRVVSVLTVLHQDWLNGKEYKCKVSNKALPAPIEKTISKAKGQPREPQVYVYPPSRDELTKNQVSLTCLVKGFYPSDIAVEWESNGQPENNYKTTPPVLDSDGSFALVSKLTVDKSRWQQGNVFSCSVMHEALHNHYTQKSLSLSPGGGGGDIVMTQTPSSVSAAVGGTVTIKCQASQTIGSSLAWYQQKPGQPPKLLIYRASTLASGVSSRFRGSGSGTEYTLTISDLECADAATYYCQWTDYGYIYIWAFGGGTEVVVKGGGGSGGGGSGGGGSQEQLVESGGGLVQPEGSLTLTCTASKFSFSSLYYMCWVRQAPGKGLEWIACVYGGSSGNTYYASWAKGRFTISKASSTTVTLQLTSLTAADTATYFCARFDVDGSGFNLWGPGTLVTVSS heavy 2: QVQLKESGPGLVAPSQSLSITCTVSGFSLTTYAISWVRQPPGKGLEWLGIIWPGGGTNYNSALKSRLSISKDNSRSQVFLKMNSLQTDDTARYYCARGAGTWYFDVWGAGTTVTVSSASTKGPSVFPLAPSSKSTSGGTAALGCLVKDYFPEPVTVSWNSGALTSGVHTFPAVLQSSGLYSLSSVVTVPSSSLGTQTYICNVNHKPSNTKVDKKVEPKSCDKTHTCPPCPAPEAAGGPSVFLFPPKPKDTLMISRTPEVTCVVVSVSHEDPEVKFNWYVDGVEVHNAKTKPREEQYNSTYRVVSVLTVLHQDWLNGKEYKCKVSNKALPAPIEKTISKAKGQPREPQVYVLPPSRDELTKNQVSLLCLVKGFYPSDIAVEWESNGQPENNYLTWPPVLDSDGSFFLYSKLTVDKSRWQQGNVFSCSVMHEALHNHYTQKSLSLSPG light: DIQMTQSTSSLSASVGDRVTISCSASQGISNYLNWYQQKPDGTVKLLIYYTSSLHSGVPSRFSGSGSGTDYSLTISNLEPEDIATYYCQQYSKFPWTFGGGTKLEIKRTVAAPSVFIFPPSDEQLKSGTASVVCLLNNFYPREAKVQWKVDNALQSGNSQESVTEQDSKDSTYSLSSTLTLSKADYEKHKVYACEVTHQGLSSPVTKSFNRGEC |
| binds | 502 | – | v23663 (bispecific antibody, human IgG1, kappa, L234A L235A, also called 4E6 x 1H06 (VLVH) 2x1) heavy 1: QVQLKESGPGLVAPSQSLSITCTVSGFSLTSYAINWVRQPPGKGLEWLGVLWPGGGTNYNSALKSRLSISKDNSKSQVFLKMNSLQTDDTARYYCARGSGTWYFDVWGAGTTVTVSSASTKGPSVFPLAPSSKSTSGGTAALGCLVKDYFPEPVTVSWNSGALTSGVHTFPAVLQSSGLYSLSSVVTVPSSSLGTQTYICNVNHKPSNTKVDKKVEPKSCDKTHTCPPCPAPEAAGGPSVFLFPPKPKDTLMISRTPEVTCVVVSVSHEDPEVKFNWYVDGVEVHNAKTKPREEQYNSTYRVVSVLTVLHQDWLNGKEYKCKVSNKALPAPIEKTISKAKGQPREPQVYVYPPSRDELTKNQVSLTCLVKGFYPSDIAVEWESNGQPENNYKTTPPVLDSDGSFALVSKLTVDKSRWQQGNVFSCSVMHEALHNHYTQKSLSLSPGGGGGDIVMTQTPSSVSAAVGGTVTIKCQASQTIGSSLAWYQQKPGQPPKLLIYRASTLASGVSSRFRGSGSGTEYTLTISDLECADAATYYCQWTDYGYIYIWAFGGGTEVVVKGGGGSGGGGSGGGGSQEQLVESGGGLVQPEGSLTLTCTASKFSFSSLYYMCWVRQAPGKGLEWIACVYGGSSGNTYYASWAKGRFTISKASSTTVTLQLTSLTAADTATYFCARFDVDGSGFNLWGPGTLVTVSS heavy 2: QVQLKESGPGLVAPSQSLSITCTVSGFSLTSYAINWVRQPPGKGLEWLGVLWPGGGTNYNSALKSRLSISKDNSKSQVFLKMNSLQTDDTARYYCARGSGTWYFDVWGAGTTVTVSSASTKGPSVFPLAPSSKSTSGGTAALGCLVKDYFPEPVTVSWNSGALTSGVHTFPAVLQSSGLYSLSSVVTVPSSSLGTQTYICNVNHKPSNTKVDKKVEPKSCDKTHTCPPCPAPEAAGGPSVFLFPPKPKDTLMISRTPEVTCVVVSVSHEDPEVKFNWYVDGVEVHNAKTKPREEQYNSTYRVVSVLTVLHQDWLNGKEYKCKVSNKALPAPIEKTISKAKGQPREPQVYVLPPSRDELTKNQVSLLCLVKGFYPSDIAVEWESNGQPENNYLTWPPVLDSDGSFFLYSKLTVDKSRWQQGNVFSCSVMHEALHNHYTQKSLSLSPG light: DIQMTQTTSSLSASLGDRVTFSCSASQGISNYLNWYQQKPDGTVKLLIYYTSSLHLGVPSRFSGSGSGTDYSLTISNLEPEDIATYYCQQYSKLPWTFGGGTKLEIKRTVAAPSVFIFPPSDEQLKSGTASVVCLLNNFYPREAKVQWKVDNALQSGNSQESVTEQDSKDSTYSLSSTLTLSKADYEKHKVYACEVTHQGLSSPVTKSFNRGEC |
| – | – | no binding | v28725 (antibody, human IgG1, kappa, L234A L235A, V domains shown, also called humanized 1C8 H7L2) VH: EVQLVESGGGLIQPGGSLRLSCAVSGFSLTTYAISWVRQAPGKGLEWLGIIWPGGGTNYADSVKGRFTISKDNSKNTLYLQMNSLRAEDTAVYYCARGAGTWYFDVWGQGTLVTVSS VL: DIQMTQSPSSLSASVGDRVTITCSASQGISNYLNWYQQKPGKAPKLLIYYTSSLHSGVPSRFSGSGSGTDYTLTISSLQPEDIATYYCQQYSKFPWTFGQGTKLEIKR |
| – | – | no binding | v28717 (antibody, human IgG1, kappa, L234A L235A, V domains shown, FSA format, human IgG1/kappa; also called humanized 1C8 H5L1) VH: EVQLVESGGGLIQPGGSLRLSCAASGFSLTTYAISWVRQAPGKGLEWVSIIWPGGGTNYADSVKGRFTISRDNSKNTLYLQMNSLRAEDTAVYYCARGAGTWYFDVWGQGTLVTVSS VL: DIQMTQSPSSLSASVGDRVTITCSASQGISNYLNWYQQKPGKAPKLLIYYTSSLHSGVPSRFSGSGSGTDFTFTISSLQPEDIATYYCQQYSKFPWTFGQGTKVEIKR |
| binds | 220 | – | v23664 (bispecific antibody, human IgG1, kappa, L234A L235A, also called 5G8 x 1H06 (VLVH) 2x1) heavy 1: QVQLQESGPGLVQPTQSLSITCTVSGFSLISYGVHWVRQSPGKGLEWLGVIWSGGSTDYNAAFISRLSISKDNSKSQVFFKMNSLQADDTAIYYCARNPLTATVMDYWGQGTSVTVSSASTKGPSVFPLAPSSKSTSGGTAALGCLVKDYFPEPVTVSWNSGALTSGVHTFPAVLQSSGLYSLSSVVTVPSSSLGTQTYICNVNHKPSNTKVDKKVEPKSCDKTHTCPPCPAPEAAGGPSVFLFPPKPKDTLMISRTPEVTCVVVSVSHEDPEVKFNWYVDGVEVHNAKTKPREEQYNSTYRVVSVLTVLHQDWLNGKEYKCKVSNKALPAPIEKTISKAKGQPREPQVYVYPPSRDELTKNQVSLTCLVKGFYPSDIAVEWESNGQPENNYKTTPPVLDSDGSFALVSKLTVDKSRWQQGNVFSCSVMHEALHNHYTQKSLSLSPGGGGGDIVMTQTPSSVSAAVGGTVTIKCQASQTIGSSLAWYQQKPGQPPKLLIYRASTLASGVSSRFRGSGSGTEYTLTISDLECADAATYYCQWTDYGYIYIWAFGGGTEVVVKGGGGSGGGGSGGGGSQEQLVESGGGLVQPEGSLTLTCTASKFSFSSLYYMCWVRQAPGKGLEWIACVYGGSSGNTYYASWAKGRFTISKASSTTVTLQLTSLTAADTATYFCARFDVDGSGFNLWGPGTLVTVSS heavy 2: QVQLQESGPGLVQPTQSLSITCTVSGFSLISYGVHWVRQSPGKGLEWLGVIWSGGSTDYNAAFISRLSISKDNSKSQVFFKMNSLQADDTAIYYCARNPLTATVMDYWGQGTSVTVSSASTKGPSVFPLAPSSKSTSGGTAALGCLVKDYFPEPVTVSWNSGALTSGVHTFPAVLQSSGLYSLSSVVTVPSSSLGTQTYICNVNHKPSNTKVDKKVEPKSCDKTHTCPPCPAPEAAGGPSVFLFPPKPKDTLMISRTPEVTCVVVSVSHEDPEVKFNWYVDGVEVHNAKTKPREEQYNSTYRVVSVLTVLHQDWLNGKEYKCKVSNKALPAPIEKTISKAKGQPREPQVYVLPPSRDELTKNQVSLLCLVKGFYPSDIAVEWESNGQPENNYLTWPPVLDSDGSFFLYSKLTVDKSRWQQGNVFSCSVMHEALHNHYTQKSLSLSPG light: DIVMTQSQKFMSTSVGDRVSVTCKASQNVGTNVAWYQQKPGQSPKALIYSASYRDSGVPDRFTGSGSGTDFTLTISNVQSEDLAEYLCQQYNSYPLTFGAGTKLELKRTVAAPSVFIFPPSDEQLKSGTASVVCLLNNFYPREAKVQWKVDNALQSGNSQESVTEQDSKDSTYSLSSTLTLSKADYEKHKVYACEVTHQGLSSPVTKSFNRGEC |
